According to patent US20040002450A1, “Y17 - isolated molecules comprising epitopes containing sulfated moieties, antibodies to such epitopes, and uses thereof” (priority 2000, published 2004):
Non-standard residues stand in square brackets, D forms with d. No end group written: not given here. sY = N[C@@H](Cc1ccc(OS(=O)(=O)O)cc1)C(=O)O

What was measured:
Settings in all cases: remark: other sources report otherwise
Y1 scFv [1] = test: competition ELISA on coated glycocalicin, 0.25 µg/well Y1, peptide 2.5 µM
Y1 scFv [2] = test: competition ELISA on coated glycocalicin, 0.25 µg/well Y1, peptide 200 µM
Y1 scFv [3] = test: competitive FACS, 1 µg Y1-scFv on ~10^7 washed platelets, peptide 2.5 µM
Y1 scFv [4] = test: competition ELISA on coated glycocalicin, 0.25 µg/well Y1, peptide 25 µM
Y1 scFv [5] = test: competitive FACS, 1 µg Y1-scFv on ~10^7 washed platelets, peptide 200 µM
Y1 scFv [6] = test: competition ELISA on coated glycocalicin, 0.25 µg/well Y1, peptide 0.5 µM

Y1 scFv, sequence (chain, as listed by the source): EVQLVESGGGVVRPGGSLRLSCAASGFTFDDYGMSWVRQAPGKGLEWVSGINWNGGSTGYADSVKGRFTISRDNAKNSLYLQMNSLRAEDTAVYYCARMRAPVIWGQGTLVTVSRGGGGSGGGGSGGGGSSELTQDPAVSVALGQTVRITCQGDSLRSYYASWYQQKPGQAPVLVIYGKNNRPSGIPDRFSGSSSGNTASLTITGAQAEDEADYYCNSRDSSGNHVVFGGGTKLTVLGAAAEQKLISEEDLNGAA

Residual Binding of Y1 (% of baseline) (% of baseline) (Y1 scFv [1]): 62 | Residual Binding of Y1 (% of baseline) (% of baseline) (Y1 scFv [2]): 0 | Residual Binding of Y1 (% of baseline) (Geo Mean) (% of baseline) (Y1 scFv [3]): 41 | Residual Binding of Y1 (% of baseline) (% of baseline) (Y1 scFv [4]): 25 | Residual Binding of Y1 (% of baseline) (Geo Mean) (% of baseline) (Y1 scFv [5]): 5 | Residual Binding of Y1 (% of baseline) (% of baseline) (Y1 scFv [6]): 89
Binder: GDEGDTDL[sY]D[sY][sY]PEEDTE [P-1-S]
